These substances were tested against His-PP1γ (UniProt P36873) (assay: ITC; peptide (approximately 450 µM, syringe) titrated into PP1γ (~35 µM, cell); 25°C; 50 mM sodium phosphate, 150 mM NaCl, 0.5 mM TCEP, pH 7.5; single-site model).
Chain of His-PP1γ (P36873 whole entry): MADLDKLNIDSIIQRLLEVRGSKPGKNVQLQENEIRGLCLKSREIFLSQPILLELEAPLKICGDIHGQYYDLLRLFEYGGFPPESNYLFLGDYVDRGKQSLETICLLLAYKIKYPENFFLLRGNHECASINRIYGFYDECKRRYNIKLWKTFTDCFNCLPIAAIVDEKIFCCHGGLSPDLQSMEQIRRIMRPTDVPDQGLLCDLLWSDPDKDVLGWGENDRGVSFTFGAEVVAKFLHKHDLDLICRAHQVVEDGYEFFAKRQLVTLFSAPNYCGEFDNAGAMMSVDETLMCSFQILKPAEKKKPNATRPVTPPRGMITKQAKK

Point of comparison: “KNL1 1441-1455 pS1448 peptide KLNSKRV(pS)FKLPKDQW”, Kd 1.73 µM. Against it:
- Sororin 76-96 pS79 peptide PRR(pS)… — 4.2-fold higher, 7.24 µM
- Sororin 76-96 pS83 peptide PRRSPRI(pS)… — 2-fold higher, 3.46 µM
- Nipp1 197-209 pT202 peptide AKNSRV(pT)FSEDDEIW — 2.6-fold higher, 4.51 µM

Reference: PMC10698503, “Phosphatase specificity principles uncovered by MRBLE:Dephos and global substrate identification” (Molecular Systems Biology, 2023)
